Laboratory results: paper PMC8249609 (2021)

Molecular target: T1, AT1 receptor, residues 1-318, with N-terminal Flag-tag and BRIL (Flag-BRIL-AT1) (human (by the printed RefSeq …, UniProt P30556 1-318))
T1 chain: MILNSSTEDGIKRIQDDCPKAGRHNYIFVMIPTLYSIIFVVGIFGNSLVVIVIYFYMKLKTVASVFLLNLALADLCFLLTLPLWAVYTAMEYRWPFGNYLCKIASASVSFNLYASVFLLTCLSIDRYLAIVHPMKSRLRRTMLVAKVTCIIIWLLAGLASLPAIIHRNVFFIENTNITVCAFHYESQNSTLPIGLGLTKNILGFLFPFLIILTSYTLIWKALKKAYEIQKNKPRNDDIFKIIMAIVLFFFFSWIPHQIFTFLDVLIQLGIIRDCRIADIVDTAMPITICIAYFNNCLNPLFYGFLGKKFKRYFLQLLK
Experiment: SPR

- koff: 0.000389 s⁻¹
B1: cartilage oligomeric matrix protein with a C-terminal His-tag (COMP-His) (natural protein)
chain: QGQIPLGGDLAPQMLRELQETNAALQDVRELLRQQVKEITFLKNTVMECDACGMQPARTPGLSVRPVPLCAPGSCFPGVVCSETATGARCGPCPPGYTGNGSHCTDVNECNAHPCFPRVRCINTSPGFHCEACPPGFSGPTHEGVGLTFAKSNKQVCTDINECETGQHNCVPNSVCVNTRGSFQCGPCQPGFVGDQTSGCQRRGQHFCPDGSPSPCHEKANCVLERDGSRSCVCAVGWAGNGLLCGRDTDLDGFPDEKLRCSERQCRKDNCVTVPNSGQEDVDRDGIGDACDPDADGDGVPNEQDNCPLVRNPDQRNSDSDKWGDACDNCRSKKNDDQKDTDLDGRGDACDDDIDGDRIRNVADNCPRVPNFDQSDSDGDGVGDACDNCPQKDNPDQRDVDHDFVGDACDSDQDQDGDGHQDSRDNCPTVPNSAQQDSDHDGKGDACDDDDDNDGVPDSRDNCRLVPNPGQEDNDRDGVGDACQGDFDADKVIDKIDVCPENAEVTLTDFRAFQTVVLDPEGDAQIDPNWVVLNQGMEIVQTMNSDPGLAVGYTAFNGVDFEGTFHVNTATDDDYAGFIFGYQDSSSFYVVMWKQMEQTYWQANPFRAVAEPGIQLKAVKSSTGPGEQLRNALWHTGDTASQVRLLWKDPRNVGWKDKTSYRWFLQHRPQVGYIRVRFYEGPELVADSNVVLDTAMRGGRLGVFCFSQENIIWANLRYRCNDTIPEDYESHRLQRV
